Data published in patent publication US20140248303A1 (ST JUDE CHILDREN S RESEARCH HOSPITAL, published 2014).

B1: CbpA-R2 (other)
chain: PEKKVAEAEKKVEEAKKKAEDQKEEDRRNYPTNTYKTLELEIAESDVEVKKAELELVKEEAKEPRNEEKVKQAKAEVESKKAEATRLEKIKTDRKKAEEEAKRKAAEEDKVKEKP
B2: CbpA-R12 (construct containing domain 1 and domain 2) (other)
chain: EPGEKVAEAKKKVEEAEKKAKDQKEEDRRNYPTITYKTLELEIAESDVEVKKAELELVKVKANEPRDEQKIKQAEAEVESKQAEATRLKKIKTDREEAEEEAKRRADAKEQGKPKGRAKRGVPGELATPDKKENDAKSSDSSVGEETLPSPSLKPEKKVAEAEKKVEEAKKKAEDQKEEDRRNYPTNTYKTLELEIAESDVEVKKAELELVKEEAKEPRNEEKVKQAKAEVESKKAEATRLEKIKTDRKKAEEEAKRKAAEEDKVKEK
notes: On latex microspheres
B3: CbpA-N (domain N) (other)
chain: ENEGATQVPTSSNRANESQAEQGEQPKKLDSERDKARKEVEEYVKKIVGESYAKSTKKRHTITVALVNELNNIKNEYLNKIVESTSESQLQILMMESRSKVDEAVSKFEKDSSSSSSSDSSTKPEASDTAKPNKPT
notes: On latex microspheres

Target: T1, 37/67 laminin receptor (LR) (Homo sapiens (Human), UniProt P08865 2-295)
T1 construct: also called LRP
Test: adhesion of construct-labeled latex microspheres to fixed TNF-activated RBCEC6 cells

Binder | bead adherence to RBCEC6 cells, % (compared with full length CbpA-NR12 beads) [%] | binding result
B1 | 6 | no binding
B2 | 226 | 
B3 | 23 | no binding
